# Test results published in the supplement of paper PMC9170038.
# Test system: MS2 coat protein
# Test: apparent KD of MS2 coat protein; higher = weaker reporter binding
# Settings: Eterna round: R107
# Method: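 RNA-MaP round R107: designed RNA switches with theophylline, tryptophan, arginine or FMN aptamers are transcribed on-chip within common flanks. They are titrated with SNAP-549-labelled MS2 coat protein in RNA-MaP buffer (100 mM Tris pH 7.5, 80 mM KCl, 4 mM MgCl2), without ligand or with the indicated ligand. Median apparent KD per design.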
# [1] = input ligand: theophylline 20 uM
# [2] = input ligand: theophylline 2 mM
# [3] = input ligand: tryptophan 2.4 mM
Sequence,apparent KD of MS2 coat protein (input ligand: arginine 13.2 mM),apparent KD of MS2 coat protein [1],apparent KD of MS2 coat protein [2],apparent KD of MS2 coat protein (input ligand: none),apparent KD of MS2 coat protein [3]
UAAUGCAGGUCGGCCGCCACUACACACAUGAGGAUCACCCAUGUAGUUACUGGGUGAAGUGGCAGUAGGACCGGGACCUGCAUAA [Brourd01],185 nM,467 nM,873 nM,,
CAAAAUAUAACGGCCGCCACUUACUCAUGAGGUAACAACAUGAGGAUCACCCAUGUUUGAGGAUCAAGGACCGGGUUAUAUUUUG [AstrosSSTry#21],24.7 nM,34.9 nM,33 nM,,
AGCUCGCAUCCUCAAAGCGUCAAAGACGCACGAGGACCGGUACGGCCGCCACUCGACCUGAGGAUCACCCUGGUCUAAGCGAGCA [TrypAX 9 #SwitchBubble #AlternativeMS2 #MS2Late #CuTurnoff],29.7 nM,49.2 nM,48.8 nM,36.2 nM,381 nM
UUGGGUUUGUGAAGGAGCGGGAAAGUUAUAUAGUUAAUCCUAACAUGAGGAUCACCCAUGUCCCAGGUAGGUCGCGCGGGUUUGG [12.P],32.7 nM,60.6 nM,55 nM,47.5 nM,47.3 nM
GGGUACAUCGCGGCCGCCACUUGUGUAAAUACAUGAGGAUCACCCAUGUCGAUGGAGACAUCGGAGAGGACCGGGUGAUGUACCG,70.7 nM,122 nM,96.5 nM,80 nM,40.8 nM
CGAGUAGGUUCAAUCGAAUAACGGUUUUCGCGAGGACCGGUACGGCCGCCACUCGUGUGAUAUCACACAUGAGGAUCACCCAUGU [3'end-1],33.5 nM,49.2 nM,68 nM,,
AAUCGUAAGGCGGCCGCCACUACACAUGAGGAUCACCCAUGUCUCGCAGGCUUGCGUUGGGUUAGUAGGACCGGGCCAGUAAUAA [Exclusion - Tryptophan B (Freestyle 15)],25.8 nM,43.2 nM,37 nM,32.1 nM,34.5 nM
CGAAAGCUCCUUAUGUGCUUUCGACUGGAAGGAGCGAGCGAAAGCUCAGGUAGGUCGCCAGAAACAUGAGGAUCACCCAUGUAAU [(A)''-(M)'-(A)'(Arg1)-(Arg2)-(M1)-(M2)_Design9],29.8 nM,25.6 nM,27.2 nM,18 nM,18.5 nM
AUACAUGAGGAUCACCCAUGUCAUUCAGAAGGAGCGUCAUUUUAGACAGGUAGGUCGCUGUUAUUGGUAUUAUACUUUAUGUUUA [JR_ExcArginiA_Sub024],20.1 nM,34.9 nM,24.7 nM,22.9 nM,28.9 nM
GUCUUGGGAUCGGCCGCCACUACAUGAGGAUCACCCAUGUGGACAAAUAGGGUUGUUAAGCUCGGUAGGACCGGGAUUCGGACAU [Oncetexeza],22.1 nM,41.1 nM,27.3 nM,26 nM,111 nM
AGACAUGAGGAUCACCCAUGUAGUAUGGAUACCAGAUCCAGAUUUAUCCCUUGGCAGCUGUGGUACAGCGAUGGAUUGCUCCUAG [Exclusion - Theophylline A (Freestyle 10)],33.5 nM,48.5 nM,,,39.2 nM
UCCUCCUCCGCAAGGAGGAGGAGUUGCGAUACCAGCACGGUAACGUGCCCUUGGCAGCGCACAUGAGGAUCACCCAUGUCAUGUU [#1 Exclusion - Theophylline A Attempt #11 (HarryS)],15 nM,24.5 nM,,,17.1 nM
GGGUACAUCGCGGCCGCCACUUAUGUAAAUACAUGAGGAUCACCCAUGUCGAUGGAGACAUCGGAAAGGACCGGGUGAUGUACCG,130 nM,271 nM,262 nM,,
ACAUGAGGAUCACCCAUGUGCCGUCUUGAUACCAGACCCGAAGUAGUCCCUUGGCAGCAACUACGUGACGGUCGCCCAUGUGUAG [rremullin],14 nM,20.4 nM,,,14.7 nM
CCAUGCAGGUCGGCCGCCACUACACACAUGAGGAUCACCCAUGUAGUUACUGGGUGAAGUGGCAGUAGGACCGGGACCUGCACAC [Brourdmod20],84 nM,446 nM,601 nM,289 nM,335 nM
AAACGUUGCUCAGAUACCAGACAUGAGGAUCACCCAUGUACCAAGGUAACCGAAAGGCAUGUCCCUUGGCAGCUGAGCAACGAAA [MAT - Exclusion Theophlline B - Mod of Eli - D16],12.4 nM,21.4 nM,,,12.5 nM
